Source: the supplement of paper PMC10065799, “High-throughput profiling of sequence recognition by tyrosine kinases and SH2 domains using bacterial peptide display” (eLife, 2023)

Tests used:
c-Src SH2 = test: SH2 binding enrichment of the phosphorylated peptide, bacterial display (enrichment ratio); higher = better substrate or ligand; peptides without Tyr show the background
SHP2-C SH2 = test: as above
Grb2 SH2 = Grb2 SH2 (UniProt P62993); test: as above
EPHB1 = EPHB1 (UniProt P54762); test: phosphorylation enrichment, bacterial display (enrichment ratio); higher = better substrate or ligand; peptides without Tyr show the background
Chain of EPHB1 (P54762 whole entry, looked up): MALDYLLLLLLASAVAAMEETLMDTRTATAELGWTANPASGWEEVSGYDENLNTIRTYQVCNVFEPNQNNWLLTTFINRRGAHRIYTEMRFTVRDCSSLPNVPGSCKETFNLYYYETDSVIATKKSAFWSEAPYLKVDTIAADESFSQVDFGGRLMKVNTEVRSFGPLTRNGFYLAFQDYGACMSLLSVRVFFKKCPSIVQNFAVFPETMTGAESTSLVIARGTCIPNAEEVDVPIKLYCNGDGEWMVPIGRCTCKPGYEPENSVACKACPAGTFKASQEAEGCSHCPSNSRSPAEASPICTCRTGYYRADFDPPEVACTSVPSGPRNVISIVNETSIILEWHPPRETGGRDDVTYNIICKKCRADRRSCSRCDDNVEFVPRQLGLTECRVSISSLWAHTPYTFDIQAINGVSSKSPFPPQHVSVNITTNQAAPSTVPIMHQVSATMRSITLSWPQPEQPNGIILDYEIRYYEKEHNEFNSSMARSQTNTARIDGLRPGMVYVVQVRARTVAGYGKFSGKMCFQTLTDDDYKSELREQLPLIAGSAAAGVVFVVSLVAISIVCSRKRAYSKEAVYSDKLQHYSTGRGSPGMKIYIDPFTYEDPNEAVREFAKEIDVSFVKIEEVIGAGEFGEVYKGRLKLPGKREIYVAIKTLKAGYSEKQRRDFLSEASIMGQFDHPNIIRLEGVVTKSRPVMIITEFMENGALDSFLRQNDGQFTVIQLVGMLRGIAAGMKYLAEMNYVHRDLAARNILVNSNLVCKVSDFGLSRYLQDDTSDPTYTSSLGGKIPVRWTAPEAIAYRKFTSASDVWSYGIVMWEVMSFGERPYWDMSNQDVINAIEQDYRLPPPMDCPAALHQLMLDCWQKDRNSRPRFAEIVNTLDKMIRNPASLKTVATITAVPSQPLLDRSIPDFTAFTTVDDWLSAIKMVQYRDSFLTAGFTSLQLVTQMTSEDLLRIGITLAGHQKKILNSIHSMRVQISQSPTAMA

AncSZ = test: as above
MERTK = MERTK (UniProt Q12866); test: as above
EPHB2 = EPHB2 (UniProt P29323); test: as above
Chain of EPHB2 (P29323 whole entry, looked up): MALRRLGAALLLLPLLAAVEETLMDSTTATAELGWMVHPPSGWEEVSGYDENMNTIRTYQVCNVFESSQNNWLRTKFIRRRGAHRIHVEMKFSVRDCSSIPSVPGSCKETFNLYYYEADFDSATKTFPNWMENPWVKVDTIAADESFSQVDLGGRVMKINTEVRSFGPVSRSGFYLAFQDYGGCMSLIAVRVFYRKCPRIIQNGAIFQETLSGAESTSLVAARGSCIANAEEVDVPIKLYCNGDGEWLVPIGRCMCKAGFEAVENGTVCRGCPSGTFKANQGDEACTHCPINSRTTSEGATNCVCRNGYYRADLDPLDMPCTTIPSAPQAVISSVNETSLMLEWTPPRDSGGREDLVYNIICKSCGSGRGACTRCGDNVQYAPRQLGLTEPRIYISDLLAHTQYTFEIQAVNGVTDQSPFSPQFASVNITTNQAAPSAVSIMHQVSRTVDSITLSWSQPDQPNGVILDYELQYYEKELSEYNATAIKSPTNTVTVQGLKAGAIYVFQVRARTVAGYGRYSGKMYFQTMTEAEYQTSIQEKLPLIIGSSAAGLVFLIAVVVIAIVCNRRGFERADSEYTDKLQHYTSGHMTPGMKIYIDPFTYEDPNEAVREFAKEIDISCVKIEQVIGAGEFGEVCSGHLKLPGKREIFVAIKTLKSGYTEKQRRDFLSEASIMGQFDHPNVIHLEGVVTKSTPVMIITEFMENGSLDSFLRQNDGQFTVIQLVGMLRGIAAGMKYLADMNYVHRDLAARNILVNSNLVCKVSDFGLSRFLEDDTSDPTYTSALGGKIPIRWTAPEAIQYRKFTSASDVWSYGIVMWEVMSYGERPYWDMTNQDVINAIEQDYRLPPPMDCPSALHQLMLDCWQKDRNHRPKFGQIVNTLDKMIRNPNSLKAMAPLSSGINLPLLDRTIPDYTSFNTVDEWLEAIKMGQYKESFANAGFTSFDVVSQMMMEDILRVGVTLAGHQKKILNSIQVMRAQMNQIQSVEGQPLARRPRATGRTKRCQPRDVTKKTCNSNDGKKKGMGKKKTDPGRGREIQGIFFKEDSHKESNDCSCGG

Fes = Fes (UniProt P07332); test: as above
Chain of Fes (P07332 whole entry, looked up): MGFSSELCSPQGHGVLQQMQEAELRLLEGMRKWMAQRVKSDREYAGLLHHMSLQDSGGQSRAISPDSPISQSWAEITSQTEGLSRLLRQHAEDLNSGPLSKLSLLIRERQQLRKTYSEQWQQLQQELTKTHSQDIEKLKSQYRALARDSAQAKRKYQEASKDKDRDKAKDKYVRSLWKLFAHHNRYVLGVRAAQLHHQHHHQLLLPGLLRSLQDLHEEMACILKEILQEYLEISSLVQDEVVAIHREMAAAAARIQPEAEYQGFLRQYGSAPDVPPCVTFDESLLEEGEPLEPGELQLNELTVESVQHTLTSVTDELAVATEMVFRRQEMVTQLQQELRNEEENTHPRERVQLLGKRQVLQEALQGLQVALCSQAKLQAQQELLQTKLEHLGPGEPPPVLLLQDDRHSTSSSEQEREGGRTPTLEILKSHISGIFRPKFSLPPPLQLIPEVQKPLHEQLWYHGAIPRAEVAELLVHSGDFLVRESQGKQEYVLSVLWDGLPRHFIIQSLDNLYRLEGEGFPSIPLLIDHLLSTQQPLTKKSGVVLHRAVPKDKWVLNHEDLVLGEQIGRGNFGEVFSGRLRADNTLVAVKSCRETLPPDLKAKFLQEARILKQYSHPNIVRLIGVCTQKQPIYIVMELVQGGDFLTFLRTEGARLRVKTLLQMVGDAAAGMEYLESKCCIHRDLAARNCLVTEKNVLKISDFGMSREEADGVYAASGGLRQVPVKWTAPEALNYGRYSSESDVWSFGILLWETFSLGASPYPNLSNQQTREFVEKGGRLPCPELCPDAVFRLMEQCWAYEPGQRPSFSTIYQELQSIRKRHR

Fer (mouse) = test: as above
FGFR1 = FGFR1 (UniProt P11362); test: as above
Hck = Hck (UniProt P08631); test: as above
Fyn = Fyn (UniProt P06241); test: as above
Chain of Fyn (P06241 whole entry, looked up): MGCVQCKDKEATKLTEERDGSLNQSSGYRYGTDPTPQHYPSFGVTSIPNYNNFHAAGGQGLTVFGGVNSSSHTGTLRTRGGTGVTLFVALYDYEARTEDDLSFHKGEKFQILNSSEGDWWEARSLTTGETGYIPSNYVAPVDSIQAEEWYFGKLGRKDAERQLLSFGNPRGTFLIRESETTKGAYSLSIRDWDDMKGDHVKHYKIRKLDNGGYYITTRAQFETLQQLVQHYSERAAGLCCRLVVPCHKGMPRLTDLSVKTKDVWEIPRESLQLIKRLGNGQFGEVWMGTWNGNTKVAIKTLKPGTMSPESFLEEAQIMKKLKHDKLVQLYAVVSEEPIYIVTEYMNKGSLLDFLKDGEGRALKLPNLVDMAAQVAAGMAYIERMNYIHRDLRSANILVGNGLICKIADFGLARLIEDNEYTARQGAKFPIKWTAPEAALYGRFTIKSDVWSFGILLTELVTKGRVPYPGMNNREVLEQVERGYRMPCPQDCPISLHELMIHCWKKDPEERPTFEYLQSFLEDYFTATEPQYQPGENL

FGFR3 = FGFR3 (UniProt P22607); test: as above
c-Src = test: as above
c-Abl (mouse) = test: as above
Jak2 = Jak2 (UniProt O60674); test: as above
Chain of Jak2 (O60674 whole entry, looked up, the tested form may be a part): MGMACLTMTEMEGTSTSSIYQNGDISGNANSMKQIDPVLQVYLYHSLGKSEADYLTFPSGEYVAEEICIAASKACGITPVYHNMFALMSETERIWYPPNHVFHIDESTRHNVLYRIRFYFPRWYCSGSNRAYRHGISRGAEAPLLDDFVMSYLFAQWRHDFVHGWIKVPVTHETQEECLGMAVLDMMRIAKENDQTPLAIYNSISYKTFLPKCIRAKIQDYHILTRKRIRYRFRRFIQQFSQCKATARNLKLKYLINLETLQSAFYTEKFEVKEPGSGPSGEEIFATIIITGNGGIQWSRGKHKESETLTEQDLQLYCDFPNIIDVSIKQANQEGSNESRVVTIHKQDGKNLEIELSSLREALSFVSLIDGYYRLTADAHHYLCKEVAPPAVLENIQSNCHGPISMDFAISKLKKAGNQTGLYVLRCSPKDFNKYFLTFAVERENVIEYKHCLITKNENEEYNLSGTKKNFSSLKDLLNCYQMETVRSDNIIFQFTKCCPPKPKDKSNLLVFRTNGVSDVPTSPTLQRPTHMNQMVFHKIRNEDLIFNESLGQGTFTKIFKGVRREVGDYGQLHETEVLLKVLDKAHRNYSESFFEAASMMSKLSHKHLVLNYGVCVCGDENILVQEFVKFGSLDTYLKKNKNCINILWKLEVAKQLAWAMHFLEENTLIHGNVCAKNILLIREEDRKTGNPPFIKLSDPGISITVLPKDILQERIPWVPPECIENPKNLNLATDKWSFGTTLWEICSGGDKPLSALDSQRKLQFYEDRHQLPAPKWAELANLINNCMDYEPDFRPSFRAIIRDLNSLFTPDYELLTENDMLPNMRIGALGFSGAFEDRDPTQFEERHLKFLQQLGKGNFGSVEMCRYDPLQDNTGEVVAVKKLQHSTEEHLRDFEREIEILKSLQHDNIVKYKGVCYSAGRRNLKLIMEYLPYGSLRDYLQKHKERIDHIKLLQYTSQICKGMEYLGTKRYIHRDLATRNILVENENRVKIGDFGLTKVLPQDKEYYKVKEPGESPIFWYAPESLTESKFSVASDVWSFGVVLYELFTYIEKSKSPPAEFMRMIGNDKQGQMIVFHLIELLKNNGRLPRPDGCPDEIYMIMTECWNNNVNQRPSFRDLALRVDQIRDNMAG
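Wherever SH2 binding enrichment of the phosphorylated peptide, bacterial display is given: peptide library displayed on the E. coli surface as eCPX fusions, selected cells deep-sequenced, score is each peptide's frequency after selection divided by its frequency in the input.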
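Wherever phosphorylation enrichment, bacterial display is given: 11-residue human phosphosite peptides and single-mutation variants displayed on the E. coli surface, counted by deep sequencing, each peptide's frequency after selection divided by its frequency in the unselected input library; frequency after pTyr selection over input frequency; kinase dosed for 20-30% of maximal phosphorylation in three min.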

Chain of Grb2 SH2 (P62993 whole entry, looked up): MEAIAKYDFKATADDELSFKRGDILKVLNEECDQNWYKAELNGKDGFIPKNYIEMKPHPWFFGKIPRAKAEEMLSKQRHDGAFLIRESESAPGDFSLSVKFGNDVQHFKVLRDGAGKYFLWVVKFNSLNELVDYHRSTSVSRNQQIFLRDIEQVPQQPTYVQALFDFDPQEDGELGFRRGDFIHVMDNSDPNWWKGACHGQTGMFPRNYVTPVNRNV

Sequence	SH2 binding enrichment (c-Src SH2)	SH2 binding enrichment (SHP2-C SH2)	SH2 binding enrichment (Grb2 SH2)	phosphorylation enrichment (EPHB1)	phosphorylation enrichment (AncSZ)	phosphorylation enrichment (MERTK)	phosphorylation enrichment (EPHB2)	phosphorylation enrichment (Fes)	phosphorylation enrichment (Fer (mouse))	phosphorylation enrichment (FGFR1)	phosphorylation enrichment (Hck)	phosphorylation enrichment (Fyn)	phosphorylation enrichment (FGFR3)	phosphorylation enrichment (c-Src)	phosphorylation enrichment (c-Abl (mouse))	phosphorylation enrichment (Jak2)
FIIFIYAMKKK [SLCO1B1_Y645_L643F_YF]	0.758	1.4	0.884	0.709	1.42	1.09	0.541	1.23	0.72	0.461	1.45	0.848	0.578	1.65	1.52	2.04
FKTPTYPFLLP [PLD2_Y578_YF]	0.657	0.745	0.971	0.74	0.641	0.588	0.422	0.693	0.362	0.652	0.43	0.413	0.704	0.552	0.833	0.815
FLENFYDLEKD [MMP3_Y42_K45E_YF]	0.677	0.907	0.978	0.531	1.33	0.516	0.546	1.34	0.433	0.504	1.39	4.33	0.679	2.23	0.764	1.21
FQKNIYSEELR [LMNA_Y211]	0.591	1.5	1.02	0.84	1.01	5.8	0.728	1.24	0.516	0.801	1.07	0.965	1.2	1.81	1.04	1.04
FQLENYCNGGG [INS_Y108_YF]	1.18	0.674	1.29	0.677	1.34	0.45	0.458	1.41	0.364	0.601	0.619	0.878	0.72	0.736	1.76	2.44
FQVRRYDCDCD [CRYGS_Y21_G18V]	0.891	0.854	0.921	0.583	1.19	0.553	0.592	1.32	0.497	0.557	0.498	0.563	0.758	0.622	0.788	1.32
FRIDHYLGKEM [G6PD_Y202_YF]	0.625	0.607	0.932	0.448	0.808	0.371	0.41	1.63	0.41	0.455	0.49	0.427	0.671	0.32	0.54	0.675
FRRITYHNWRH [PDE6B_Y556_YF]	0.399	0.456	0.475	0.309	0.785	0.518	0.515	0.635	0.571	0.432	0.527	0.593	0.458	0.535	0.577	0.627
FSEVRYMKEPF [HIPK4_Y170_V171M_YF]	0.547	0.646	0.863	0.473	0.677	0.32	0.459	0.821	0.36	0.451	0.438	0.379	0.48	0.388	0.66	0.741
FSKQIYKGMVA [PCDH15_Y931_R929Q]	0.471	0.654	0.879	0.351	0.441	0.346	0.342	0.479	0.331	0.337	0.384	0.502	0.432	0.365	0.42	0.472
FSKTQYNQVPS [CXADR_Y318_YF]	0.56	1.03	0.962	0.424	0.801	0.697	0.858	0.85	0.551	0.577	0.598	0.507	0.556	0.613	0.892	1.15
FSMGCYEIFLG [HMGCL_Y198_S201Y_YF]	0.557	0.706	0.938	2.01	2.87	4.33	2.07	1.8	3.74	0.95	3.21	5.89	1.35	6.25	1.28	1.51
FVSLIYTNFEA [GSTP1_Y109_I105V_YF]	0.8	1.15	1.35	1.13	1.78	5.37	0.91	1.46	3.18	0.962	3.31	5.96	1.05	5.94	2.22	1.18
FVSSFYHAFSG [ACTN4_Y265_YF]	0.95	1.07	1.33	1.51	0.999	8.71	0.896	1.3	0.522	1.2	2.6	2.32	1.34	4.01	2.01	1.19
FYRNVYHLASV [RBL1_Y796_K794N]	2	0.699	0.745	0.611	0.728	0.371	0.587	0.635	0.417	0.464	0.648	1.93	0.556	1	0.429	0.484
GAAMLYYPSVS [GPR143_Y177]	0.765	0.608	0.776	1.5	0.763	4.88	1.66	0.783	0.63	4.07	1.46	0.747	3.51	1.11	0.941	2.6
GACGGYCSVLG [RAB18_Y202]	8.18	2.48	0.875	0.358	0.533	0.525	0.352	0.77	0.441	0.435	0.392	0.473	0.401	0.509	0.461	0.522

Sequence	SH2 binding enrichment (c-Src SH2)	SH2 binding enrichment (SHP2-C SH2)	SH2 binding enrichment (Grb2 SH2)	phosphorylation enrichment (EPHB1)	phosphorylation enrichment (AncSZ)	phosphorylation enrichment (MERTK)	phosphorylation enrichment (EPHB2)	phosphorylation enrichment (Fes)	phosphorylation enrichment (Fer (mouse))	phosphorylation enrichment (FGFR1)	phosphorylation enrichment (Hck)	phosphorylation enrichment (Fyn)	phosphorylation enrichment (FGFR3)	phosphorylation enrichment (c-Src)	phosphorylation enrichment (c-Abl (mouse))	phosphorylation enrichment (Jak2)
GADAIYDHVNE [UQCR10_Y44_I47V]	0.523	0.648	0.79	1.34	1.09	2.02	1.82	1.08	3.42	0.456	6.29	4.52	0.62	3.77	0.8	0.773
GCAGKYIAMVM [CYP19A1_Y441]	0.603	0.56	0.875	0.548	1	0.569	0.474	1.07	0.513	0.44	0.439	0.461	0.702	0.414	0.712	0.889
GCLSKYSGVFS [TUBGCP6_Y1624_V1621L]	0.723	1.07	1.04	0.52	0.778	0.46	0.543	1.01	0.514	0.425	0.542	0.51	0.565	0.509	0.673	1.19
GDYLSYREFHL [ERBIN_Y1107_S1112L]	0.491	0.689	0.84	16.4	1.8	0.478	22.7	0.809	0.79	5.4	2.45	3.1	3.96	2.46	15.7	1.53
GEDLSYGDVPP [IRS1_Y151]	0.529	0.732	0.806	0.624	1.22	0.463	0.534	1.28	0.709	0.588	0.556	0.639	0.84	0.482	0.765	0.995
GGDGSYVSVPS [TNNI3K_Y425]	1.83	0.728	0.69	0.382	0.564	0.338	0.431	0.565	0.415	0.419	0.412	0.443	0.592	0.347	0.487	0.495
GGKYSYLKVGH [GRM3_Y480]	1.79	1.29	1.23	0.344	0.678	0.513	0.394	0.616	0.503	0.404	0.388	0.497	0.536	0.4	0.666	0.604
GGRIDYIAGLD [APRT_Y60]	0.498	0.728	0.789	0.85	0.898	0.46	0.417	0.829	0.521	0.447	0.52	0.409	0.545	0.422	0.582	0.708
GHLYANDWISI [BEST1_Y227_Y227N]	18.4	3.5	24.5	0.778	0.819	3.32	0.619	0.871	0.527	0.609	0.575	0.734	0.674	0.683	0.587	0.878
GIFKDYFRFNF [PLA2G2D_Y85_S80G_YF]	1.23	1.74	1.82	0.57	1.16	0.56	0.47	1.18	0.507	4.19	0.579	0.501	2.94	0.622	0.897	3.79
GIKAAYEAELG [LMNA_Y81]	0.514	0.727	0.875	0.531	0.713	0.404	0.507	0.797	0.446	0.502	0.438	0.597	0.496	0.392	0.704	0.691
GISDEYHVIQH [GCDH_Y398_R402Q]	0.816	0.567	0.804	0.554	1.64	0.496	0.526	0.928	0.447	6.93	0.846	0.752	3.78	0.898	0.641	0.883
GIVEDYRPPFC [ACVRL1_Y421_Y426C]	0.569	0.713	0.887	0.511	0.994	0.451	0.532	1.01	0.437	0.598	0.406	0.492	0.599	0.517	0.782	0.883
GKSHIYFWTLD [EML2_Y230_E235D]	0.387	0.712	0.703	0.622	1.17	0.778	0.523	1.21	0.508	1.07	0.521	0.514	1.1	0.572	0.847	1.11
GKVADYIPQLP [GLS_Y249_A254P]	0.448	0.634	0.724	0.468	0.796	0.455	0.49	0.866	0.495	0.57	0.448	0.484	0.634	0.484	0.795	0.892
GLAELYEFKKK [CKAP5_Y1854_YF]	0.533	0.864	2.2	0.307	0.534	0.381	0.348	0.705	0.43	0.487	0.559	0.554	0.48	0.665	0.451	0.619
